Data published in US20210087271A1.
“And” between values parts separate entries of the source, which are not always exact repeats. Equal values may be shown once.

Tests used:
FcγRIIA (human) [1] = target: FcγRIIA (human) (UniProt P12318); assay: SPR Biacore 8K; IgG captured on biotinylated CD3 peptide SA chip; 1 µM FcγRIIA, pH 7.4
FcγRIIIA (human) = FcγRIIIA (human) (UniProt P08637); assay: SPR Biacore 8K; IgG captured on biotinylated CD3 peptide SA chip; 1 µM FcγRIIIA, pH 7.4
FcγRI (human) [2] = target: FcγRI (human) (UniProt P12314); assay: SPR Biacore 8K; IgG captured on biotinylated CD3 peptide SA chip; 100 nM FcγRI, pH 7.4
Sequence of UniProt P12314 (P12314 16-288 limits assumed): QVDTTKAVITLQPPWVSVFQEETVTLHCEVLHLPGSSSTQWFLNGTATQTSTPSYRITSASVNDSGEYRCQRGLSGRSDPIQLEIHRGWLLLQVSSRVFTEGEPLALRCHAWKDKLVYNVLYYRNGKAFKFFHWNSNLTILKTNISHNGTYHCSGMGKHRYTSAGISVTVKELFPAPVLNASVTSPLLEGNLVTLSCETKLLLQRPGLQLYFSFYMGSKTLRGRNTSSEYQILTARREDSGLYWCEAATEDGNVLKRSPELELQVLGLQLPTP

C1q [3] = target: C1q (UniProt P02745); assay: SPR Biacore 8K; IgG captured on biotinylated CD3 peptide SA chip; 1 µM C1q, pH 7.4
Sequence of UniProt P02745 (P02745 23-245 limits assumed, chain 1 of 3): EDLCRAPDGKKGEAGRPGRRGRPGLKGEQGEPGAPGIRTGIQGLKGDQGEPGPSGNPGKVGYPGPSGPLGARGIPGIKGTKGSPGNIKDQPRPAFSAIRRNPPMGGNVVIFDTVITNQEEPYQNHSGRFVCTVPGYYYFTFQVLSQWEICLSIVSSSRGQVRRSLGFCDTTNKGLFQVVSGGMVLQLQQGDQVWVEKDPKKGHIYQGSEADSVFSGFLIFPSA
Sequence of UniProt P02745 (P02746 28-253 limits assumed, chain 2 of 3, further chain): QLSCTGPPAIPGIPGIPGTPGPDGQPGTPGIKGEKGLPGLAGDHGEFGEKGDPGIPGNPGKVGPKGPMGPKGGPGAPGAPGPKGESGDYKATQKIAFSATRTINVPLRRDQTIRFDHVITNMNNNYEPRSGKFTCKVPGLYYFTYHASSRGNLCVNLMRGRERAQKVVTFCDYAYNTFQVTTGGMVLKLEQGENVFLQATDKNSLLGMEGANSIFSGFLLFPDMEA
Sequence of UniProt P02745 (P02747 29-245 limits assumed, chain 3 of 3, further chain): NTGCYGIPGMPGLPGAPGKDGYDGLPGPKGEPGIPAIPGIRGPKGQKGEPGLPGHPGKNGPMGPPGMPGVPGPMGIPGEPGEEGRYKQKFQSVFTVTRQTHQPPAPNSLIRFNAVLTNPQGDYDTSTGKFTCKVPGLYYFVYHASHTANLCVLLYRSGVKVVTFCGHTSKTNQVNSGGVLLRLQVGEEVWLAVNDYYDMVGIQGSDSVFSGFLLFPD

C1q [4] = target: C1q (UniProt P02745); assay: flow cytometry; antibody on CD3 peptide-coated SA Dyna Beads incubated with C1q
FcγR on THP-1 cells = assay: flow cytometry; 100 nM antibody pre-complexed with 10 nM biotinylated CD3 peptide, on THP-1 cells
FcRn = FcRn (UniProt P55899); assay: SPR Biacore 8K; IgG captured on biotinylated CD3 peptide SA chip; 1 µM FcRn, pH 6.0
CD3 = assay: BLI ForteBio; IgG on AHQ sensor, 100 nM antigen, 1:1 model
FcγRIIA (human) [5] = target: FcγRIIA (human) (UniProt P12318); assay: SPR Biacore 8K, response vs WT
FcγRI (human) [6] = target: FcγRI (human) (UniProt P12314); assay: SPR Biacore 8K, response vs WT

Sequence of UniProt P08637 (P08637 17-208 limits assumed): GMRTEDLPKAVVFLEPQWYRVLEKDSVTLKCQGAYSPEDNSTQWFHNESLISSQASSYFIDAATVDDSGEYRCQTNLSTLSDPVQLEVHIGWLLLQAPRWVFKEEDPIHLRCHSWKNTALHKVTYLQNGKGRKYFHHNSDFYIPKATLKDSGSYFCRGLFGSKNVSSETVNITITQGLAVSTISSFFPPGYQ
Sequence of UniProt P12318 (P12318 36-218 limits assumed): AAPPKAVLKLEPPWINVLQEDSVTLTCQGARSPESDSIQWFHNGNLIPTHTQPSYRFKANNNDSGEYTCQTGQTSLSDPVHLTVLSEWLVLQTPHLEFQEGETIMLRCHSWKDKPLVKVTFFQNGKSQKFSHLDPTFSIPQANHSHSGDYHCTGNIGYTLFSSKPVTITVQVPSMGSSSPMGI

| Substance | late association response (RU) (FcγRIIA (human) [1]) | late association response (RU) (FcγRIIIA (human)) | late association response (RU) (FcγRI (human) [2]) | late association response (RU) (C1q [3]) | C1q Binding (MFI) (C1q [4]) | THP-1 Binding (MFI) (FcγR on THP-1 cells) | late association response (RU) (FcRn) | Kd (CD3) [nM] | % reduction of binding compared to WT (FcγRIIA (human) [5]) | % reduction of binding compared to WT (FcγRI (human) [6]) |
| --- | --- | --- | --- | --- | --- | --- | --- | --- | --- | --- |
| LALA-PG variant of the CD3 antibody (WT engineered to contain L234A and L235A and P329G) (from UniProt P01857 1-330) | -0.1 | -0.3 | 2 | -25.1 | 676 | 146 | 44.5 | – | – | – |
| LALE variant of the CD3 antibody (WT engineered to contain L234A and L235E) (from UniProt P01857 1-330) | 0.1 | 0.4 | – | -27.3 | 1790 | 5300 | 38.9 | – | – | – |
| LALE-PA variant of the CD3 antibody (WT engineered to contain L234A and L235E and P329A) (from UniProt P01857 1-330) | -0.1 | -0.1 | 0.8 | -23.3 | 660 | 124 | 38.1 | – | – | – |
| LALE-PG variant of the CD3 antibody (WT engineered to contain L234A and L235E and P329G) (from UniProt P01857 1-330) | 0 | -0.3 | 0.8 | -6.5 | 865 | 124 | 37.3 | – | 100% | 99.1% |

The next lines start with the values.

| late association response (RU) (FcγRIIA (human) [1]) | late association response (RU) (FcγRIIIA (human)) | late association response (RU) (FcγRI (human) [2]) | late association response (RU) (C1q [3]) | C1q Binding (MFI) (C1q [4]) | THP-1 Binding (MFI) (FcγR on THP-1 cells) | late association response (RU) (FcRn) | Kd (CD3) [nM] | % reduction of binding compared to WT (FcγRIIA (human) [5]) | % reduction of binding compared to WT (FcγRI (human) [6]) | Substance |
| --- | --- | --- | --- | --- | --- | --- | --- | --- | --- | --- |
| 0.1 | 0.6 | 23.5 | -13.9 | 1980 | 5270 | 44 | – | – | – | LALA variant of the CD3 antibody (WT engineered to contain L234A and L235A) (from UniProt P01857 1-330) |
| -0.1 | -0.5 | – | -3.3 | 621 | 169 | 45.1 | 3.9 | > 95% and 100% | > 95% and 97.6% | LALA-PA variant of the CD3 antibody (WT engineered to contain L234A and L235A and P329A) (from UniProt P01857 1-330) |
